Results taken from paper PMC6594998.

Legend:
[1] = target: Nme1Cas9 (purified, full length) (N. meningitidis); test: ITC; 100 μM AcrIIC2Nme titrated into 10 μM Nme1Cas9; 20 °C; 300 mM NaCl, 20 mM Tris pH 7.5; One Set of Sites model
[2] = target: Nme1Cas9 (purified, full length) (N. meningitidis)
[3] = target: AcrIIC2Nme (purified, pET28a-Sumo construct) (not stated (suffix Nme; its cognate Cas9 is from N. meningitidis)); test: crystal structure; Nme1Cas9 and AcrIIC2Nme mixed 1:10, complex purified by gel filtration; hanging drop, 16 °C; Nme1Cas9 digested during crystallization; 2.6 Å
[4] = target: AcrIIC2Nme (purified, pHAT4 construct with N-terminal 6-His tag) (not stated (suffix Nme; its cognate Cas9 is from N. meningitidis)); test: crystal structure; AcrIIC2Nme alone; Se-SAD; 2.5 Å

AcrIIC2Nme (purified, pET28a-Sumo construct) (natural protein)
Kd [1]: 200 nM
in vitro DNA cleavage by Nme1Cas9; sgRNA and AcrIIC2Nme added simultaneously; excess of AcrIIC2Nme needed to block cleavage [2]: > 10 fold excess
stoichiometry N [3]: 2

AcrIIC2Nme (purified, pHAT4 construct with N-terminal 6-His tag) (natural protein)
stoichiometry N [4]: 2
